doi:10.1101/634915 (bioRxiv, 2019)

Target: RlucII-Rab7A (UniProt P51149 1-207)
Test: FRET or BRET

Chain of RlucII-Rab7A (P51149 whole entry): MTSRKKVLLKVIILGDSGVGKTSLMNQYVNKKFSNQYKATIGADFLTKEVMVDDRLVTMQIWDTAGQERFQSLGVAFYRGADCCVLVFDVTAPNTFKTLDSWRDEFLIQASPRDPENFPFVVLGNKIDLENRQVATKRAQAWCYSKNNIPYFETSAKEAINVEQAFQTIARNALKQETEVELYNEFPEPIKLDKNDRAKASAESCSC

B1: PLEKHM1-GFP10 (natural protein, UniProt Q9Y4G2 1-1056, looked up)
chain: MLSVVENGLDPQAAIPVIKKKLVGSVKALQKQYVSLDTVVTSEDGDANTMCSALEAVFIHGLHAKHIRAEAGGKRKKSAHQKPLPQPVFWPLLKAVTHKHIISELEHLTFVNTDVGRCRAWLRLALNDGLMECYLKLLLQEQARLHEYYQPTALLRDAEEGEFLLSFLQGLTSLSFELSYKSAILNEWTLTPLALSGLCPLSELDPLSTSGAELQRKESLDSISHSSGSEDIEVHHSGHKIRRNQKLTASSLSLDTASSSQLSCSLNSDSCLLQENGSKSPDHCEEPMSCDSDLGTANAEDSDRSLQEVLLEFSKAQVNSVPTNGLSQETEIPTPQASLSLHGLNTSTYLHCEAPAEPLPAQAASGTQDGVHVQEPRPQAPSPLDLQQPVESTSGQQPSSTVSETAREVGQGNGLQKAQAHDGAGLKLVVSSPTSPKNKSWISEDDFYRPSREQPLESASDHPIASYRGTPGSRPGLHRHFSQEPRKNCSLGALDQACVPSPGRRQAQAAPSQGHKSFRVVHRRQMGLSNPFRGLMKLGTVERRGAMGIWKELFCELSPLEFRLYLSNEEHTCVENCSLLRCESVGPAHSDGRFELVFSGKKLALRASSQDEAEDWLDRVREALQKVRPQQEDEWVNVQYPDQPEEPPEAPQGCLSPSDLLSEPAALQGTQFDWSSAQVPEPDAIKESLLYLYMDRTWMPYIFSLSLEALKCFRIRNNEKMLSDSHGVETIRDILPDTSLGGPSFFKIITAKAVLKLQAGNAEEAALWRDLVRKVLASYLETAEEAVTLGGSLDENCQEVLKFATRENGFLLQYLVAIPMEKGLDSQGCFCAGCSRQIGFSFVRPKLCAFSGLYYCDICHQDDASVIPARIIHNWDLTKRPICRQALKFLTQIRAQPLINLQMVNASLYEHVERMHLIGRRREQLKLLGDYLGLCRSGALKELSKRLNHRNYLLESPHRFSVADLQQIADGVYEGFLKALIEFASQHVYHCDLCTQRGFICQICQHHDIIFPFEFDTTVRCAECKTVFHQSCQAVVKKGCPRCARRRKYQEQNIFA
fold change of BRET50, CLN3-KO against wild-type HeLa cells: 3.5 fold
